{"source": "paper PMC9490328", "about": "“Characterization and structure of the human lysine-2-oxoglutarate reductase domain, a novel therapeutic target for treatment of glutaric aciduria type 1” (Open Biology, 2022)", "key": {"[1]": {"biological_target": "T1, 2-aminoadipic semialdehyde synthase (AASS), lysine-2-oxoglutarate reductase (LOR) domain (Homo sapiens, UniProt Q9UDR5)", "T1 construct": "recombinant LOR domain (amino acids 21-470)", "T1 sequence (Q9UDR5 21-470)": "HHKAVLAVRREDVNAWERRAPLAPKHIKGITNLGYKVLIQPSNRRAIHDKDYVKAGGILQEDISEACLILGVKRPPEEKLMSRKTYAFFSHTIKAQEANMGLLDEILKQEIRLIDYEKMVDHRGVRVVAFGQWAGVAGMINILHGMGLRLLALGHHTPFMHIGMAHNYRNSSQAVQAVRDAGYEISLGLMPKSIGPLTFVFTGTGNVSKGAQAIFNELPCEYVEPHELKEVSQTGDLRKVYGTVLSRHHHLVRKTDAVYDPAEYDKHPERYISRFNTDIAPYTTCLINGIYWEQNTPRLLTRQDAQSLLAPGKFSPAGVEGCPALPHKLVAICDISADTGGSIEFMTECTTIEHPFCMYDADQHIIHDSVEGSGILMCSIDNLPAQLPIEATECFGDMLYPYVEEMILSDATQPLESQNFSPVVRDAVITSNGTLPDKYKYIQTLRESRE", "experiment": "spectrophotometric LOR enzyme assay ([…] nm, NADPH consumption)", "assay_type": "biochemical"}, "[2]": {"biological_target": "T2, 2-aminoadipic semialdehyde synthase (AASS), lysine-2-oxoglutarate reductase (LOR) domain (Homo sapiens, UniProt Q9UDR5)", "T2 construct": "LOR short construct (amino acids 21-451)", "T2 sequence (Q9UDR5 21-451)": "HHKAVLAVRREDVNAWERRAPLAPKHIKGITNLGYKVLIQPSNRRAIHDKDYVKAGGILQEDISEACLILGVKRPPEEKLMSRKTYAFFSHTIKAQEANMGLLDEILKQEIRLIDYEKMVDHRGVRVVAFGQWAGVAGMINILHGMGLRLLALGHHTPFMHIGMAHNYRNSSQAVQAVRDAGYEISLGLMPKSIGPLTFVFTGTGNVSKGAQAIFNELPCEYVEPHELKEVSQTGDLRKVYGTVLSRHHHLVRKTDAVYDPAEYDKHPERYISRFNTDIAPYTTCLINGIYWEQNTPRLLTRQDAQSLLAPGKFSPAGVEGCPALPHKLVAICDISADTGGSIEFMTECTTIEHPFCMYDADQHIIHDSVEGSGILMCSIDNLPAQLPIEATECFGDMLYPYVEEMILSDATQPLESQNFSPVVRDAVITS", "experiment": "X-ray crystal structure of NEM-alkylated LOR; also activation in enzyme assay and immunoblot with anti-NEM antibody", "assay_type": "binding"}, "[3]": {"substrate": "NCCCC[C@H](N)C(=O)O", "experiment": "steady-state kinetics, forward reaction (Km)", "assay_type": "biochemical, Homo sapiens", "conditions": "NADPH; pH 8.8"}, "[4]": {"substrate": "NC(=O)c1ccc[n+]([C@@H]2O[C@H](COP(=O)(O)OP(=O)(O)OC[C@H]3O[C@@H](n4cnc5c(N)ncnc54)[C@H](OP(=O)(O)O)[C@@H]3O)[C@@H](O)[C@H]2O)c1", "experiment": "purified protein", "conditions": "pH 8.8; varied: cofactor"}, "[5]": {"substrate": "O=C(O)CCC(=O)C(=O)O", "experiment": "purified protein", "conditions": "NADPH; pH 8.8"}, "[6]": {"substrate": "NC(=O)C1=CN([C@@H]2O[C@H](COP(=O)(O)OP(=O)(O)OC[C@H]3O[C@@H](n4cnc5c(N)ncnc54)[C@H](OP(=O)(O)O)[C@@H]3O)[C@@H](O)[C@H]2O)C=CC1", "experiment": "purified protein", "conditions": "predicted: Ser […] and Arg […] interact with the additional phosphate of NADPH; pH 8.8; varied: cofactor"}, "[7]": {"substrate": "N[C@@H](CCCCN[C@@H](CCC(=O)O)C(=O)O)C(=O)O", "experiment": "steady-state kinetics, reverse reaction (Km); also inhibits the forward LOR reaction in AASS-Myc-DDK lysates", "assay_type": "biochemical, Homo sapiens", "conditions": "NADP+ consistent with its ability to compete with lysine and 2-oxoglutarate; pH 8.8"}}, "data": [{"molecule": "NC[C@@H]1CCCN1C(=O)c1ccc2c(c1)CCC(=O)N2", "note": "[S-105]", "values": [{"measurement": "IC50", "setting": "[1]", "value": 142, "unit": "µM"}]}, {"molecule": "CCN1C(=O)C=CC1=O", "note": "[NEM, N-ethylmaleimide]", "values": [{"measurement": "X-ray crystal structure of NEM-alkylated LOR; also activation in enzyme assay an", "setting": "[2]", "value": "crystal structure of NEM-alkylated LOR short construct (PDB 8E8V)"}]}, {"molecule": "2-aminoadipic semialdehyde synthase (AASS), lysine-2-oxoglutarate reductase (LOR) domain (Homo sapiens) (protein, isolated LOR (amino acids 21-470)) HHKAVLAVRREDVNAWERRAPLAPKHIKGITNLGYKVLIQPSNRRAIHDKDYVKAGGILQEDISEACLILGVKRPPEEKLMSRKTYAFFSHTIKAQEANMGLLDEILKQEIRLIDYEKMVDHRGVRVVAFGQWAGVAGMINILHGMGLRLLALGHHTPFMHIGMAHNYRNSSQAVQAVRDAGYEISLGLMPKSIGPLTFVFTGTGNVSKGAQAIFNELPCEYVEPHELKEVSQTGDLRKVYGTVLSRHHHLVRKTDAVYDPAEYDKHPERYISRFNTDIAPYTTCLINGIYWEQNTPRLLTRQDAQSLLAPGKFSPAGVEGCPALPHKLVAICDISADTGGSIEFMTECTTIEHPFCMYDADQHIIHDSVEGSGILMCSIDNLPAQLPIEATECFGDMLYPYVEEMILSDATQPLESQNFSPVVRDAVITSNGTLPDKYKYIQTLRESRE", "values": [{"measurement": "Km", "setting": "[3]", "value": "24000 ± 2000", "unit": "µM"}, {"measurement": "Vmax", "setting": "[3]", "value": 28.8, "unit": "µmol/min/mg"}, {"measurement": "Km", "setting": "[4]", "value": "420 ± 10", "unit": "µM"}, {"measurement": "Vmax", "setting": "[4]", "value": 525, "unit": "µmol/min/mg"}, {"measurement": "Km", "setting": "[5]", "value": "1400 ± 100", "unit": "µM"}, {"measurement": "Vmax", "setting": "[5]", "value": 57.2, "unit": "µmol/min/mg"}, {"measurement": "Km", "setting": "[6]", "value": "390 ± 20", "unit": "µM"}, {"measurement": "Vmax", "setting": "[6]", "value": 65.4, "unit": "µmol/min/mg"}, {"measurement": "Km", "setting": "[7]", "value": "1700 ± 100", "unit": "µM"}, {"measurement": "Vmax", "setting": "[7]", "value": 443, "unit": "µmol/min/mg"}]}]}
